Results as given in article PMC7072344, “Structure–Activity Relationship of HER2 Receptor Targeting Peptide and Its Derivatives in Targeted Tumor Therapy” (Biomolecules, 2020).

Target: T1, human epidermal growth factor 2 (HER2) receptor (human (endogenous in MDA-MB-453, …, UniProt P04626 23-1255))
T1 construct: HER2 (ErbB2), 185 kDa transmembrane glycoprotein, endogenous on human breast cancer cell lines; No isolated HER2 was tested; also called ErbB2; source: endogenous, on MDA-MB-453 breast cancer cells (highest HER2 expression); also on MDA-MB-435 Br and MCF-7 cells (medium HER2 expression)
Test: flow cytometry on cells; MDA-MB-453 cells incubated with CF-labelled peptides, 12.5 µM, 3 h, 37 °C, 5 min trypsinization; read-out percentage of CF+ live cells and mean fluorescence intensity
Conditions: one partner purified

B1: CF-KAAYSLGYYNPT-NH2 (peptide)
peptide: {5(6)‑carboxyfluorescein}-KAAYSLGYYNPT-NH2
notes: combined peptide: KAAYSL followed by GYYNPT; also called cP(AA)_P(YY); cP(AA)_(YY); source: synthetic peptide (Fmoc/tBu solid phase, RP-HPLC purified)
In the case of B1, the “fold increase of mean fluorescence intensity over P(AA)” value is reported as roughly 10 fold.
